Square brackets hold non-standard residues; d marks the D form. Ends that are not written are not given here. * marks the point of attachment. OBzl(3,5-(CF3)2) = FC(F)(F)c1cc(CO*)cc(C(F)(F)F)c1; Phe(4-Cl) = N[C@@H](Cc1ccc(Cl)cc1)C(=O)O; Phe(4-F) = N[C@@H](Cc1ccc(F)cc1)C(=O)O
B1: TyrDAlaGlyPheProLeuTrpOBn(CF3)2 (peptide)
peptide: Y[dA]GFPLW-{OBzl(3,5-(CF3)2)}
notes: also called TY001
B2: TyrDAlaGlyPheLeuProLeuTrpOBn(CF3)2 (peptide)
peptide: Y[dA]GFLPLW-{OBzl(3,5-(CF3)2)}
notes: also called TY004
B3: TyrDAlaGlyPheDPheProLeuTrpOBn(CF3)2 (peptide)
peptide: Y[dA]GF[dF]PLW-{OBzl(3,5-(CF3)2)}
notes: also called TY007
B4: TyrDAlaGlyPhePheProLeuTrpOBn(CF3)2 (peptide)
peptide: Y[dA]GFFPLW-{OBzl(3,5-(CF3)2)}
notes: also called TY003
B5: TyrDAlaGlyPheGlyProLeuTrpOBn(CF3)2 (peptide)
peptide: Y[dA]GFGPLW-{OBzl(3,5-(CF3)2)}
modifications: also: TFA salt
notes: also called TY006
B6: TyrDAlaGlyPheMet(O)ProLeuTrpOBn(CF3)2 (peptide)
peptide: YAGFMPLW
modifications: D-Ala at 2; Met(O) at 5; C-terminal O-3,5-Bzl(CF3)2 ester
notes: also called TY023
B7: TyrDAlaGlyPheNleProLeuTrpOBn(CF3)2 (peptide)
peptide: YAGFXPLW
modifications: D-Ala at 2; Nle at 5 (written X); C-terminal O-3,5-Bzl(CF3)2 ester
notes: also called TY018
B8: Tyr-D-Ala-Gly-pClPhe-O-3′,5′(CF3)2-Bzl (peptide)
peptide: Y[dA]G[Phe(4-Cl)]-{OBzl(3,5-(CF3)2)}
notes: also called NP52
B9: Tyr-D-Ala-Gly-Phe-Trp-O-3′,5′(CF3)2-Bzl (peptide)
peptide: Y[dA]GFW-{OBzl(3,5-(CF3)2)}
notes: also called NP36
B10: Tyr-D-Ala-Gly-pFPhe-O-3′,5′(CF3)2-Bzl (peptide)
peptide: Y[dA]G[Phe(4-F)]-{O‑3,5‑Bzl(CF3)2}
notes: also called NP62
B11: DmtDAlaGlyPheNleProLeuTrpNHBn-3-(CF3) (peptide)
peptide: YAGFXPLW
modifications: Dmt at 1 (written Y); D-Ala at 2; Nle at 5 (written X); C-terminal NH-3-Bn(CF3) amide
notes: also called TY053
B12: DmtDAlaGlyPheNleProLeuTrpNHBn(CF3)2 (peptide)
peptide: YAGFXPLW
modifications: Dmt at 1 (written Y); D-Ala at 2; Nle at 5 (written X); C-terminal NH-3,5-Bzl(CF3)2 amide
notes: also called TY050

Target: T1, rat NK1 receptor (rat, UniProt P14600 1-407)
T1 construct: whole, on cells; membrane preparations of the transfected cells were used; also called rNK1; rNK-1
T1 sequence (P14600 whole entry): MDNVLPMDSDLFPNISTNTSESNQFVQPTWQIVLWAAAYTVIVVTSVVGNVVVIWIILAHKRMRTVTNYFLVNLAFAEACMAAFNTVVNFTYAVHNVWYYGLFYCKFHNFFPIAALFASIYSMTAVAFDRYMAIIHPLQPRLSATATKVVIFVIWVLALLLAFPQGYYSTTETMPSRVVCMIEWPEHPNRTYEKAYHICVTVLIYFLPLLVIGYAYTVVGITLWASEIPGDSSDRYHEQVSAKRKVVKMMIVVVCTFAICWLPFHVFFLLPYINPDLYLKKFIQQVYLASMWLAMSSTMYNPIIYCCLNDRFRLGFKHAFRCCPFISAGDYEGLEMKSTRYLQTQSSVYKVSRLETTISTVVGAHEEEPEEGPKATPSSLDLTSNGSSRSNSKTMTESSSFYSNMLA
Experiment: competition vs [3H]Substance P, rNK1 CHO cell membranes

B1 and B2 are within 1.5-fold of each other in IC50: 21.7 nM for the first, 20.9 nM for the second.

Going from B3 to B4, the IC50 falls from 66.7 nM to 19.3 nM (3.5-fold).

Compared with B5, B6 is 3.5-fold higher in IC50: 15.6 nM for the first, 54.5 nM for the second.

Target: T2, rat µ opioid receptor (rat, UniProt P33535 1-398)
T2 sequence (P33535 whole entry): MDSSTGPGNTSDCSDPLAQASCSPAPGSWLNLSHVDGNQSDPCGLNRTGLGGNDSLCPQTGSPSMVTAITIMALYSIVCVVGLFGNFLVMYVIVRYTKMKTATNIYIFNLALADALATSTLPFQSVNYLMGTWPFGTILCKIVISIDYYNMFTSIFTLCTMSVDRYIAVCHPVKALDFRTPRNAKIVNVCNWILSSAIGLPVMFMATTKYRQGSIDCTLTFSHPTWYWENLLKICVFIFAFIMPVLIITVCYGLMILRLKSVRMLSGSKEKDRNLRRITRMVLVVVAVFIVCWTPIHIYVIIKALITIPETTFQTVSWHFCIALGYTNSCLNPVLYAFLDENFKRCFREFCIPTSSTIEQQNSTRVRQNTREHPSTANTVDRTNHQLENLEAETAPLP
Experiment: cell-based or functional assay

First: B2
Second: B3
The “GTP binding Emax” value of the first is higher: 44.5% for the first, 23.6% for the second.

Going from B4 to B5, the “GTP binding Emax” value falls from 36.3% to 35.9%.

Compared with B3, B4 is 5.9-fold lower in “GTP binding EC50” value: 345 nM for the first, 58.7 nM for the second.

With B5 the “GTP binding EC50” value was 41.7 nM.

Target: T3, human δ opioid receptor (human, UniProt P41143 1-372)
T3 sequence (P41143 whole entry, stated change not applied): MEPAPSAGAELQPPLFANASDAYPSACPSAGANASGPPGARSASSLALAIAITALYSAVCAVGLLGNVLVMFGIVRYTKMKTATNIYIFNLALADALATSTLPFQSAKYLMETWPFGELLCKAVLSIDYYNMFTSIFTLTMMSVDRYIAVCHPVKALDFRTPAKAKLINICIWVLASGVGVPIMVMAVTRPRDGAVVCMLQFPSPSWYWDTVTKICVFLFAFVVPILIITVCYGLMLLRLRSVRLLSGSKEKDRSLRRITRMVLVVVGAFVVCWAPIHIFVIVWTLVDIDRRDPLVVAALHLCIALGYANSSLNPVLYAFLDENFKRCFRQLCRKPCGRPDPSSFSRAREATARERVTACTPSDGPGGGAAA
Experiment: cell-based or functional assay

Going from B7 to B2, the “GTP binding EC50” value rises from 4 nM to 9.6 nM (2.4-fold).

B3 and B4 are within 1.5-fold of each other in “GTP binding EC50” value: 16.7 nM for the first, 20.8 nM for the second.

B5 was tested, and the “GTP binding EC50” value was 50.2 nM.

Compared with B7, B2 is lower in “GTP binding Emax” value: 131% for the first, 42.5% for the second.

Going from B3 to B4, the “GTP binding Emax” value rises from 22.9% to 39%.

Going from B5 to B6, the “GTP binding Emax” value rises from 33.6% to 52.8%.

Target: T3, human δ opioid receptor
Experiment: competition vs [3H]DPDPE, hDOR cell membranes

Compared with B7, B2 is 2.8-fold higher in Ki: 1.8 nM for the first, 5 nM for the second.

Going from B3 to B4, the Ki falls from 110 nM to 14.6 nM (7.5-fold).

Going from B5 to B6, the Ki falls from 36.1 nM to 5.1 nM (7.1-fold).

Target: T4, human NK1 receptor (human, UniProt P25103 1-407)
T4 construct: whole, on cells; membrane preparations of the transfected cells were used; also called hNK1; human neurokinin-1 receptor
T4 sequence (P25103 whole entry): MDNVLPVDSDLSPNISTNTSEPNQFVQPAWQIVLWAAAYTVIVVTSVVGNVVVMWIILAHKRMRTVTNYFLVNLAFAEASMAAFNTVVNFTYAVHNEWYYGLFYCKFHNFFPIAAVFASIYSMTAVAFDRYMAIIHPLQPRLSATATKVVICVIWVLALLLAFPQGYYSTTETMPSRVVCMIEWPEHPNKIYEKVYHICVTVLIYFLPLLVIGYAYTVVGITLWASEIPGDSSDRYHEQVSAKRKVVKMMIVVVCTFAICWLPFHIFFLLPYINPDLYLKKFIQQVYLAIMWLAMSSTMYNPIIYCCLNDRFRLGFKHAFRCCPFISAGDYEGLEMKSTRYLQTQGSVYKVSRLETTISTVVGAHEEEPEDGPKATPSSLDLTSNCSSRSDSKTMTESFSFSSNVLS
Experiment: competition vs [3H]Substance P, hNK1 CHO cell membranes

Compared with B8, B9 is 16000-fold lower in Ki: 8.04 nM for the first, 0.0005 nM for the second. The second binds more tightly here.

Binder B10 has a Ki of 0.2 nM.

Target: T4, human NK1 receptor
Experiment: as above
Remark: another data set of the same source

Compared with B11, B12 is 14-fold lower in Ki: 1.04 nM for the first, 0.075 nM for the second.

Target: T2, rat µ opioid receptor
Experiment: competition vs [3H]DAMGO, rMOR cell membranes

First: B2
Second: B3
The Ki of the first is 18-fold lower: 23.3 nM for the first, 410 nM for the second.

B4 and B5 are within 1.5-fold of each other in Ki: 28.3 nM for the first, 27 nM for the second.

Target: µ opioid receptor of the guinea pig isolated ileum (guinea pig, UniProt P97266 1-98)
Sequence (P97266 whole entry): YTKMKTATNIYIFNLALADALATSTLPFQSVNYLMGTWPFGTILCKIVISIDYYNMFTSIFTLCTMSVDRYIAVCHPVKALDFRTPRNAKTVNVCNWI
Experiment: cell-based or functional assay

B7 and B2 are within 1.5-fold of each other in “GPI/LMMP IC50” value: 372 nM for the first, 341 nM for the second.

Going from B5 to B6, the “GPI/LMMP IC50” value falls from 384 nM to 154 nM (2.5-fold).

Going from B3 to B4, the “GPI/LMMP, inhibition at 1 mM” value falls from 9% to 7%.

Target: guinea pig NK1 receptor (guinea pig, UniProt P30547 1-407)
Sequence (P30547 whole entry): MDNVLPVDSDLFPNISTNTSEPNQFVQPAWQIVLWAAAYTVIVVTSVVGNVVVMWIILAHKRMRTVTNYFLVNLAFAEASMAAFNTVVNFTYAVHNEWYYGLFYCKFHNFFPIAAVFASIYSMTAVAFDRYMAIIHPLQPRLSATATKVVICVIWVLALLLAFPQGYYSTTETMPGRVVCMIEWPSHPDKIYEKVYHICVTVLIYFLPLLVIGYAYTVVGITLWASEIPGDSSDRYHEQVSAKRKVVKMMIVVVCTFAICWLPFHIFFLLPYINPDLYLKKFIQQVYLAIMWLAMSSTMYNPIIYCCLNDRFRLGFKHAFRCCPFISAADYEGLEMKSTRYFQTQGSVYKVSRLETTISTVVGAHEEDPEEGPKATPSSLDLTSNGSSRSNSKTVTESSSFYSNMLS
Experiment: cell-based or functional assay

Compared with B7, B2 is 2.5-fold higher in “GPI/LMMP SP antagonist Ke” value: 7.9 nM for the first, 19.4 nM for the second.

First: B3
Second: B4
The “GPI/LMMP SP antagonist Ke” value of the first is 4.8-fold higher: 69.6 nM for the first, 14.4 nM for the second.

B5 and B6 are within 1.5-fold of each other in “GPI/LMMP SP antagonist Ke” value: 5.4 nM for the first, 7.8 nM for the second.

Reference: US8026218 (UNIVERSITY OF ARIZONA, dated 2011)
